{"source": "paper PMC9063426", "about": "“MAP kinases differentially bind and phosphorylate NOS3 via two unique NOS3 sites” (FEBS Open Bio, 2022)", "molecules": {"B1": {"name": "mitogen‐activated protein kinase 8 (protein)", "chain": "MSRSKRDNNFYSVEIGDSTFTVLKRYQNLKPIGSGAQGIVCAAYDAILERNVAIKKLSRPFQNQTHAKRAYRELVLMKCVNHKNIIGLLNVFTPQKSLEEFQDVYIVMELMDANLCQVIQMELDHERMSYLLYQMLCGIKHLHSAGIIHRDLKPSNIVVKSDCTLKILDFGLARTAGTSFMMTPYVVTRYYRAPEVILGMGYKENVDLWSVGCIMGEMVCHKILFPGRDYIDQWNKVIEQLGTPCPEFMKKLQPTVRTYVENRPKYAGYSFEKLFPDVLFPADSEHNKLKASQARDLLSKMLVIDASKRISVDEALQHPYINVWYDPSEAEAPPPKIPDKQLDEREHTIEEWKELIYKEVMDLEERTKNGVIRGQPSPLAQVQQ", "modifications": "active (phosphorylated) form; biotinylated by amine crosslinking to NHS-LC-LC-biotin, 5 : 1 molar ratio of biotin to protein; left off: GST, end not stated, kept", "notes": "c-Jun N-terminal kinase"}}, "key": {"NOS3 [1]": {"test_system": "NOS3", "test": "TCSPC fluorescence lifetime, conformation of NOS3", "settings": "FMN excited at 473 nm, detected at 525 nm; NOS3 holoenzyme", "description": "Time‐resolved intensity decays were recorded using time‐correlated single‐photon counting fluorescence lifetime spectrometry (TCSPC FLT) to determine whether phosphorylation by JNK1α1 changes the conformation of NOS3."}, "NOS1": {"test_system": "NOS1", "test": "BLI binding of MAP kinases to NOS1", "set-up": "species or system bovine", "settings": "purified active JNK1α1"}, "NOS3 [2]": {"test_system": "NOS3", "test": "In vitro kinase assay with NOS3, phospho-specific immunoblotting", "type": "biochemical, human", "settings": "active kinases with NOS3, 5 and 60 min, immunoblot with anti-pS114", "description": "(§1) Active (HIS‐NOS3) was incubated alone or with individual kinases (ERK2, p38α, JNK1α1, and PKA) in 100 µL reaction buffer (20 mM HEPES, 0.5 mM DTT, 5 mM MgCl2, 0.5 mM ATP, and 10% glycerol at a pH of 7.4). The reactions were performed at 22‐25 °C for up to 1 h, and for the examination of nitric oxide activity, samples were incubated on ice for the immediate detection of NO via the oxyhemoglobin to methemoglobin assay (see below). For immunoblotting analysis to examine phosphorylation, kinase samples were quenched with 2× sample buffer spiked with 25 mM DTT and heated to 95 °C for 5 min. Boiled samples (at equal volumes) were electrophoresed and transferred to PDVF for immunoblot staining.\nAll samples were loaded at equal volumes on 3–8% gradient tris‐acetate gels. All gels were transferred to PVDF membranes and transferred for either 2 h at 40V or for 20V overnight. Membranes were blocked with one block (Li‐Cor Biosciences) for 30 m and incubated with respective antibodies (at manufacturers recommend concentrations for immunoblotting, 1 : 500 for the anti‐pS600‐NOS3) overnight at 4 °C. Blots were brought to RT for 30 m and washed 3× with 1X TBST for 10 m, probed with a fluorometric secondary antibody (Li‐Cor IRDye®) for 1 h, and washed before visualizing with a Li‐Cor Odyssey."}, "NOS3 (bovine)": {"target": "NOS3 (bovine)", "test": "BLI binding of JNK1α1 to full-length NOS3", "description": "Biolayer interferometry (BLI) experiments were performed on a FortéBio (Menlo Park, CA) Octet QK biosensor using streptavidin (SA) sensors. Assays were performed in opaque 96‐well microplates at 25 °C. All volumes were 200 μL. Active GST‐JNK1α1 (SignalChem) was biotinylated by amine crosslinking to NHS‐LC‐LC‐biotin (succinimidyl‐6‐[biotinamido]‐6‐hexanamidohexanoate) (Thermo Fisher, Waltham, MA, USA). Reactions were performed at a 5 : 1 molar ratio of biotin to protein for 30 min at room temperature followed by separation of protein from free biotin by passage over a desalting column. Biotinylated JNK1α1 was loaded onto sensors for 300 s, which was sufficient to saturate them. Baseline was established by dipping sensors into binding buffer (50 mM Tris, pH 7.4, 10 mM NaCl, 10% glycerol, 0.01% Tween‐20) prior to moving sensors to wells containing varying concentrations of serially diluted NOS3 in the same buffer. Association was measured for 300 s, after which sensors were moved to wells containing buffer only and dissociation was monitored for another 300 s. […] Total binding was used for analysis as nonspecific binding measured by exposing sensors without ligand to analyte was negligible at all NOS3 concentrations used; that is, total binding was effectively specific binding due to very low nonspecific binding. […]"}, "NOS3 [3]": {"test_system": "NOS3", "test": "Oxyhemoglobin assay of NO production by kinase-treated NOS3", "type": "biochemical, human", "settings": "oxyHb assay, 2.5 µM NOS3 with ERK2 14 nM (N = 10), p38α 14 nM (N = 4), JNK1α1-GST 63 nM (N = 3) or PKA 14 nM (N = 4), 30 min; versus untreated NOS3", "description": "as §1\nThe oxyhemoglobin assay (oxyHb assay) is a spectroscopic method that measures the oxidative reaction of oxyhemoglobin at 421 nm (oxyHb) and methemoglobin (metHb) at 401 nm. Kinase assay reactions quenched on ice were used to measure NO synthesis and consumption. All oxyHb reactions were performed at 25 °C in a BioTek 96‐well UV‐visible spectrophotometer. […] Absorbance at 401 nm and 421 nm were read for 1 m at 15‐s intervals. […] Measurements were recorded for 10 min at 15‐s intervals.\nTo calculate NOS3 activity, the change in absorbance/unit time was divided by the extinction coefficient (ε401‐421 = 77 200 M ^−1cm^−1 (ε401 = 38 600 M ^−1cm^−1)). […]"}}, "note": "Entries after “also recorded” stand apart in the source; their conditions may differ.", "data": [{"molecule": "B1", "values": [{"measurement": "conformation of NOS3 (fluorescence decay)", "setting": "NOS3 [1]", "result": "no significant change in conformation; also recorded: did not differ significantly from that of unphosphorylated NOS3; also recorded: did not meaningfully change the confirmation of NOS3"}, {"measurement": "binding to NOS1", "setting": "NOS1", "result": "No evidence of JNK1α1 binding to NOS1 beyond nonspecific binding; also recorded: no binding could be detected"}, {"measurement": "phosphorylation of NOS3 at S114", "setting": "NOS3 [2]", "result": "predominantly phosphorylated NOS3 at S114; also recorded: phosphorylates S114; also recorded: easily detected when compared to ERK2"}, {"measurement": "Kd", "setting": "NOS3 (bovine); 400 nM trace eliminated from fit", "result": 18, "unit": "nM"}, {"measurement": "kon", "setting": "NOS3 (bovine); BLI, active GST-JNK1α1 ligand, NOS3 analyte, 25 °C, pH 7.4, global one-state fit", "result": 4106, "unit": "M⁻¹ s⁻¹"}, {"measurement": "NO production / NOS3 activity", "setting": "NOS3 [3]", "result": "do not significantly change NO production; also recorded: did not alter in vitro NOS3 activity"}]}]}
